Assay results from patent publication US20260007698A1 (published 2026).

What was measured:
[1] = biological target: T1, VCX; peptide VCX-23 peptide on HLA-A*11:01 (human); experiment: killing
T1 peptide: SSQPSPSDPK

[2] = biological target: T2, VCY (Variable charge Y-linked) CT antigen; peptide VCY-23 peptide on HLA-A*11:01 (human); experiment: multimer staining
T2 peptide: SSQPSPSGPK

- binding result [2]: recognises
B1: VCY-23 specific TCR (TCR, V domains shown)
Valpha: RKEVEQDPGPFNVPEGATVAFNCTYSNSASQSFFWYRQDCRKEPKLLMSVYSSGNEDGRFTAQLNRASQYISLLIRDSKLSDSATYLCVVTFDNYGQNFVFGPGTRLSVLP
Vbeta: NAGVTQTPKFRVLKTGQSMTLLCAQDMNHEYMYWYRQDPGMGLRLIHYSVGEGTTAKGEVPDGYNVSRLKKQNFLLGLESAAPSQTSVYFCASSYTYNYNEQFFGPGTRLTVL
- binding result [1]: no recognition
